Data from ChEMBL document CHEMBL3232870, “Discovery of 3-(4-methanesulfonylphenoxy)-N-[1-(2-methoxy-ethoxymethyl)-1H-pyrazol-3-yl]-5-(3-methylpyridin-2-yl)-benzamide as a novel glucokinase activator (GKA) for the treatment of type 2 diabetes mellitus” (Bioorg Med Chem, 2014).

Substrate: COCCOCn1ccc(NC(=O)c2cc(Oc3ccc(S(C)(=O)=O)cc3)cc(-c3ncccc3C)c2)n1
Test: Activity of recombinant human pancreatic glucokinase assessed as glucose half-maximal activity

B1: Hexokinase-4 (Homo sapiens), P35557 (protein)
chain: MLDDRARMEAAKKEKVEQILAEFQLQEEDLKKVMRRMQKEMDRGLRLETHEEASVKMLPTYVRSTPEGSEVGDFLSLDLGGTNFRVMLVKVGEGEEGQWSVKTKHQMYSIPEDAMTGTAEMLFDYISECISDFLDKHQMKHKKLPLGFTFSFPVRHEDIDKGILLNWTKGFKASGAEGNNVVGLLRDAIKRRGDFEMDVVAMVNDTVATMISCYYEDHQCEVGMIVGTGCNACYMEEMQNVELVEGDEGRMCVNTEWGAFGDSGELDEFLLEYDRLVDESSANPGQQLYEKLIGGKYMGELVRLVLLRLVDENLLFHGEASEQLRTRGAFETRFVSQVESDTGDRKQIYNILSTLGLRPSTTDCDIVRRACESVSTRAAHMCSAGLAGVINRMRESRSEDVMRITVGVDGSVYKLHPSFKERFHASVRRLTPSCEITFIESEEGSGRGAALVSAVACKKACMLGQ
- Vmax: 150%
